# Test results from the DeepSol protein solubility set.
# Test: soluble on expression in E. coli; label from the status in PepcDB or PDB records
row,Sequence,soluble on expression in E. coli
1,MSLTQIQPGVEKFIKDFNDAKKKGEHAYDMTLSYQNFDKGFFNSRFQMQMTFDNGAPDLNIKPGQKVVFDVDVEHGPLPITMLMHGNVIPALAAAKVNLVNNELTQPLFIAAKNKSPVEATLRFAFGGSFSTTLDVAPAEYGKFSFGEGQFTFNGDGSSLSNLDIEGKVEDIVLQLSPMNKVTAKSFTIDSLARLEEKKFPVGESESKFNQINIINHGEDVAQIDAFVAKTRLDRVKDKDYINVNLTYELDKLTKGNQQLGSGEWSLIAESIDPSAVRQFIIQYNIAMQKQLAAHPELANDEVALQEVNAALFKEYLPLLQKSEPTIKQPVRWKNALGELNANLDISIADPAKSSSSTNKDIKSLNFDVKLPLNVVTETAKQLNLSEGMDAEKAQKQADKQISGMMTLGQMFQLITIDNNTASLQLRYTPGKVVFNGQEMSEEEFMSRAGRFVHEGHHHHHH,not soluble
2,MGSDKIHHHHHHMMRALYTAATGMRAEQTNVDTIANNLSNVNTTGFKGQRTEFKSLLYQTIQTRSTSGNGDAKPVGAQVGLGTRVAATTSTYTQGPLNSTERPTDFALEGDGFFAVRGTDNQTYYTRNGAFTWSQYGNGQTILTDSQGNPVMDTNGNIIAVPAGVSAEKMSFGEDGAVGYMTAQGNYINLNQRIAVYQFNNPSGLEKQSGSLLAATANSGNPMLEIANPALKSSKVVTGYLEGSNVQVADEMVNLIVAQRAYELNSKAITTADSMLETANNLRR,not soluble
3,ALQAGRLGSTVFVANLDYKVGWKKLKEVFSMAGVVVRADILEDKDGKSRGIGTVTFEQSIEAVQAISMFNGQLLFDRPMHVKMDERALPKGDFFPPERPQQ,soluble
4,MGSSHHHHHHMAYTNTPHNWGIPRPKNETVPDAGKLYTDLLQKNGGFYLGDTKKKDIYLTFDNGYENGYTGKILDVLKEKKVPATFFVTGHYIKTQKDLLLRMKDEGHIIGNHSWSHPDFTAVNDEKLREELTSVTEEIKKVTGQKEVKYVRPPRGVFSERTLALTKEMGYYNVFWSLAFLDWKVDEQRGWQYAHNNVMTMIHPGSILLLHAISKDNAEALAKIIDDLREKGYHFKSLDDLVKSNQP,soluble
5,MTVYNRTKQKTEDLVTEGAQAADTPRLAAKSADIVITMLADDDSVSTVTFGEDGLLEGLAENGIHISMSTISVEFSEKLAAAHAEKGQFFLAAPVLGRPDAAAKAALRIITAGPAEAKQAAKPLLDSLSQQIFDVGEESKTANAAKISINFLLVSMLEALSESFLMMEKYGLEQKQFLEIASALFGSPVYQNYGTIMAEQKFEPAGFKMSLGLKDTNLALAAAKRVSANLPLAELAKSHFESGIEKGFGDLDWAALIKCIK,not soluble
6,MKMDRQAQFRAREALIFEVAEQLLLENGEAGMTLDALAAELDLAKGTLYKHFQSKDELYMLLIVRNERMLLEMIQDKQKSFPEHLAFFMLHHLHHPERTVMFHQIEERLSTTGQGIYDLFQELYQVRKQRLRIIINMTEIYLQEIQSTMTVRDYLAAIWSLTHGAAAILNSSFYQRYLGSRDTLRIAYIDQALAIPKHMHEQYV,not soluble
7,MFNEKDQLAVDTLRALSIDTIEKANSGHPGLPMGAAPMAYTLWTRHLNFNPQSKDYFNRDRFVLSAGHGSALLYSLLHVSGSLELEELKQFRQWGSKTPGHPEYRHTDGVEVTTGPLGQGFAMSVGLALAEDHLAGKFNKEGYNVVDHYTYVLASDGDLMEGISHEAASFAGHNKLSKLVVLYDSNDISLDGELNKAFSENTKARFEAYGWNYLLVKDGNDLEEIDKAITTAKSQEGPTIIEVKTTIGFGSPNKAGTNGVHGAPLGEVERKLTFENYGLDPEKRFNVSEEVYEIFQNTMLKRANEDESQWNSLLEKYAETYPELAEEFKLAISGKLPKNYKDELPRFELGHNGASRADSGTVIQAISKTVPSFFGGSADLAGSNKSNVNDATDYSSETPEGKNVWFGVREFAMGAAVNGMAAHGGLHPYGATFFVFSDYLKPALRLSSIMGLNATFIFTHDSIAVGEDGPTHEPIEQLAGLRAIPNMNVIRPADGNETRVAWEVALESESTPTSLVLTRQNLPVLDVPEDVVEEGVRKGAYTVYGSEETPEFLLLASGSEVSLAVEAAKDLEKQGKSVRVVSMPNWNAFEQQSEEYKESVIPSSVTKRVAIEMASPLGWHKYVGTAGKVIAIDGFGASAPGDLVVEKYGFTKENILNQVMSL,not soluble
8,MAHHHHHHMYGPSFSQTVLVAATPVVMKSPPTFFKGGNFRRISRRSTLKTTPERVPRNMYQFIVGSPSGELGHHSMDVMVSVQETVIDSGITQMCCSMLKNRRRRSLWRVTYVFGNSGDTLYNCRALSIDGLARRSMRPSPVPPDKLLSSAALIPFSVPRDFFIVFN,not soluble
